Target: T1, TDP-43 (Homo sapiens, UniProt Q13148)
T1 construct: purchased Nanjing GenScript Biotechnology Co., Ltd. C134WHE160-2/P5HF001
Test: Cleavage of TDP-43 protein in normal mouse brain homogenate (Western blot)
Type: biochemical
Conditions: normal mouse brain homogenate + recombinant TDP-43, 37° C. 3 h, vs vehicle control group
Experimental: Four C57BL/6J male mice aged 11-12 weeks and weighing 18-25 g were sacrificed, and the whole brain was taken out to weigh. 1×PBS was added at 150 mg tissue/mL PBS (Thermo Fisher, pH 7.4; 10010-031) to homogenize at 4° C. (1 min, 3-4 times). After homogenization, centrifugation was performed at 4° C. (12000 rpm, 20 min), and the supernatant, i.e., the brain homogenate, was placed in a new EP tube.
Eppendorf (EP) tubes were set as: (1) blank group, (2) blank control group, (3) vehicle control group, and (4) plasminogen group, with 5 parallels in each group. The blank group was added with 21.5 μL of normal saline, 4.6 μL of vehicle solution (10 mM sodium citrate, 2% arginine hydrochloride, 3% mannitol, pH 7.4), and 23.9 μL of mouse brain homogenate; the blank control group was added with 21.5 μL of normal saline, 2.3 μL of plasminogen solution (2 mg/mL), and 23.9 μL of mouse brain homogenate; the vehicle control group was added with 20.5 μL of TDP-43 (Nanjing GenScript Biotechnology Co., Ltd., custom-expressed human TDP-43, C134WHE160-2/P5HF001, 1.05 mg/mL), 4.6 μL of vehicle solution, and 23.9 μL of mouse brain homogenate; the plasminogen group was added with 20.5 μL of TDP-43 (1.05 mg/mL), 2.3 μL of plasminogen solution (2 mg/mL), and 23.9 μL of mouse brain homogenate. After adding each group of samples, they are incubated at 37° C. for 3 h, then adding 50 μL of 0.1% trifluoroacetic acid solution to terminate the reaction.
A 12% gel was prepared according to the SDS-PAGE gel preparation instructions. Each group of samples was mixed with 4× loading buffer (TaKaRa, e2139) at a volume ratio of 3:1, heating at 100° C. for 5 min, cooling and centrifuging for 2 min, and then 20 μL was taken for sample loading. […] After washing 4 times with TBST, the PVDF membrane was placed on a clean imaging plate, Immobilon Western HRP Substrate (MILLIPORE, WBKLS0100) was added for color development, and photos were taken under a biomolecular imager, then performing quantitative analysis by using Image J.

T1 sequence (Q13148 whole entry): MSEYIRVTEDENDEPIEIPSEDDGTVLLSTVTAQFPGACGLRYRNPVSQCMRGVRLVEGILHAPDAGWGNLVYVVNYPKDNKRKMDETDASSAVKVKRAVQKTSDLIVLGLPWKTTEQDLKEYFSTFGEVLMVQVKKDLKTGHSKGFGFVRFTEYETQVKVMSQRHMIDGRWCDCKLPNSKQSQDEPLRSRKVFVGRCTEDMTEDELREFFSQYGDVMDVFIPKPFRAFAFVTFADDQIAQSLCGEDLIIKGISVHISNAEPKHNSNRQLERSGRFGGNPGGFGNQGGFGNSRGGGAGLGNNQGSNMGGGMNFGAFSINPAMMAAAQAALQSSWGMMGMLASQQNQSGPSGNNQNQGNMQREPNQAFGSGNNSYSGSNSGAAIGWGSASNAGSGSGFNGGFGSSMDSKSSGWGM

B1: plasminogen: human plasminogen purified from human donor plasma, in which human Lys-plasminogen and Glu-plasminogen are >98% (protein)
chain: KVYLSECKTGNGKNYRGTMSKTKNGITCQKWSSTSPHRPRFSPATHPSEGLEENYCRNPDNDPQGPWCYTTDPEKRYDYCDILECEEECMHCSGENYDGKISKTMSGLECQAWDSQSPHAHGYIPSKFPNKNLKKNYCRNPDRELRPWCFTTDPNKRWELCDIPRCTTPPPSSGPTYQCLKGTGENYRGNVAVTVSGHTCQHWSAQTPHTHNRTPENFPCKNLDENYCRNPDGKRAPWCHTTNSQVRWEYCKIPSCDSSPVSTEQLAPTAPPELTPVVQDCYHGDGQSYRGTSSTTTTGKKCQSWSSMTPHRHQKTPENYPNAGLTMNYCRNPDADKGPWCFTTDPSVRWEYCNLKKCSGTEASVVAPPPVVLLPDVETPSEEDCMFGNGKGYRGKRATTVTGTPCQDWAAQEPHRHSIFTPETNPRAGLEKNYCRNPDGDVGGPWCYTTNPRKLYDYCDVPQCAAPSFDCGKPQVEPKKCPGRVVGGCVAHPHSWPWQVSLRTRFGMHFCGGTLISPEWVLTAAHCLEKSPRPSSYKVILGAHQEVNLEPHVQEIEVSRLFLEPTRKDIALLKLSSPAVITDKVIPACLPSPNYVVADRTECFITGWGETQGTFGAGLLKEAQLPVIENKVCNRYEFLNGRVQSTELCAGHLAGGTDSCQGDSGGPLVCFEKDKYILQGVTSWGLGCARPNKPGVYVRVSRFVTWIEGVMRNN
significantly lower: amount of TDP-43 monomer (WB optical density) | amount of high molecular weight TDP-43 protein (HMW) | amount of low molecular weight TDP-43 fragment (LMW)
